Substrate: CC(=O)NCCCC[C@H](NC(=O)[C@H](C)NC(=O)CNC(C)=O)C(=O)Nc1ccc2c(C)cc(=O)oc2c1
Test: purified protein, by the assay type
Parameters: fluorogenic AMC-conjugated acetyllysine peptide deacetylation, steady-state kinetics
Excerpt: To determine steady-state kinetic parameters for the hydrolysis of a variety of acetylpolyamine and acetyllysine substrates, we prepared full-length recombinant HDAC10 from human (H. sapiens, hHDAC10) and zebrafish (D. rerio, zHDAC10). The CDs of these orthologues are highly similar based on 63%/79% sequence identity/similarity; only full-length constructs yielded soluble proteins. We first assayed the lysine deacetylase activity of these constructs against two commercially available aminomethylcoumarin (AMC)-conjugated fluorogenic acetyllysine peptides, GAK(ac)-AMC and RGK(ac)-AMC (molecular structures of all substrates are shown in Supplementary Fig. 2). […] These measurements were consistent with earlier studies reporting that HDAC10 activity was not measurable using fluorogenic peptide substrates. We also tested activity with 11 non-fluorogenic acetyllysine substrates using a […] chromatography–mass spectrometry (LC–MS)-based discontinuous assay[17] to avoid potential steric clashes that might occur with the bulky AMC group. These substrates included K(ac)NL and GAK(ac)NLQ, which mimic the peptide segment containing K73 in the proposed HDAC10 substrate MutS homologue 2 (MSH2)[22]. Again, we observed no or very low catalytic activity (Fig. 2 and Supplementary Table 1). In comparison with its closest relative, the cytosolic isozyme HDAC6 (ref. [17]), HDAC10 was clearly not an efficient lysine deacetylase.

B1: hHDAC6 CD12 (Homo sapiens) (protein)
chain: MTSTGQDSTTTRQRRSRQNPQSPPQDSSVTSKRNIKKGAVPRSIPNLAEVKKKGKMKKLGQAMEEDLIVGLQGMDLNLEAEALAGTGLVLDEQLNEFHCLWDDSFPEGPERLHAIKEQLIQEGLLDRCVSFQARFAEKEELMLVHSLEYIDLMETTQYMNEGELRVLADTYDSVYLHPNSYSCACLASGSVLRLVDAVLGAEIRNGMAIIRPPGHHAQHSLMDGYCMFNHVAVAARYAQQKHRIRRVLIVDWDVHHGQGTQFTFDQDPSVLYFSIHRYEQGRFWPHLKASNWSTTGFGQGQGYTINVPWNQVGMRDADYIAAFLHVLLPVALEFQPQLVLVAAGFDALQGDPKGEMAATPAGFAQLTHLLMGLAGGKLILSLEGGYNLRALAEGVSASLHTLLGDPCPMLESPGAPCRSAQASVSCALEALEPFWEVLVRSTETVERDNMEEDNVEESEEEGPWEPPVLPILTWPVLQSRTGLVYDQNMMNHCNLWDSHHPEVPQRILRIMCRLEELGLAGRCLTLTPRPATEAELLTCHSAEYVGHLRATEKMKTRELHRESSNFDSIYICPSTFACAQLATGAACRLVEAVLSGEVLNGAAVVRPPGHHAEQDAACGFCFFNSVAVAARHAQTISGHALRILIVDWDVHHGNGTQHMFEDDPSVLYVSLHRYDHGTFFPMGDEGASSQIGRAAGTGFTVNVAWNGPRMGDADYLAAWHRLVLPIAYEFNPELVLVSAGFDAARGDPLGGCQVSPEGYAHLTHLLMGLASGRIILILEGGYNLTSISESMAACTRSLLGDPPPLLTLPRPPLSGALASITETIQVHRRYWRSLRVMKVEDREGPSSSKLVTKKAPQPAKPRLAERMTTREKKVLEAGMGKVTSASFGEESTPGQTNSETAVVALTQDQPSEAATGGATLAQTISEAAIGGAMLGQTTSEEAVGGATPDQTTSEETVGGAILDQTTSEDAVGGATLGQTTSEEAVGGATLAQTTSEAAMEGATLDQTTSEEAPGGTELIQTPLASSTDHQTPPTSPVQGTTPQISPSTLIGSLRTLELGSESQGASESQAPGEENLLGEAAGGQDMADSMLMQGSRGLTDQAIFYAVTPLPWCPHLVAVCPIPAAGLDVTQPCGDCGTIQENWVCLSCYQVYCGRYINGHMLQHHGNSGHPLVLSYIDLSAWCYYCQAYVHHQALLDVKNIAHQNKFGEDMPHPH
notes: both catalytic domains CD1-CD2
Km: 14 ± 2 µM
kcat: 0.039 ± 0.007 s⁻¹
kcat/Km: 2800 ± 400 M⁻¹ s⁻¹

From article PMC5454378, “Histone deacetylase 10 structure and molecular function as a polyamine deacetylase” (Nature Communications, 2017)
